Results from the supplement of paper PMC10065799, “High-throughput profiling of sequence recognition by tyrosine kinases and SH2 domains using bacterial peptide display” (eLife, 2023).

Each sequence was assayed against FGFR3 (UniProt P22607) (assay: phosphorylation enrichment, bacterial display (enrichment ratio); higher = better substrate or ligand; peptides without Tyr show the background).
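Further: 11-residue human phosphosite peptides and single-mutation variants displayed on the E. coli surface, counted by deep sequencing, each peptide's frequency after selection divided by its frequency in the unselected input library; frequency after pTyr selection over input frequency; kinase dosed for 20-30% of maximal phosphorylation in three min.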

Sequence of FGFR3 (P22607 whole entry, looked up): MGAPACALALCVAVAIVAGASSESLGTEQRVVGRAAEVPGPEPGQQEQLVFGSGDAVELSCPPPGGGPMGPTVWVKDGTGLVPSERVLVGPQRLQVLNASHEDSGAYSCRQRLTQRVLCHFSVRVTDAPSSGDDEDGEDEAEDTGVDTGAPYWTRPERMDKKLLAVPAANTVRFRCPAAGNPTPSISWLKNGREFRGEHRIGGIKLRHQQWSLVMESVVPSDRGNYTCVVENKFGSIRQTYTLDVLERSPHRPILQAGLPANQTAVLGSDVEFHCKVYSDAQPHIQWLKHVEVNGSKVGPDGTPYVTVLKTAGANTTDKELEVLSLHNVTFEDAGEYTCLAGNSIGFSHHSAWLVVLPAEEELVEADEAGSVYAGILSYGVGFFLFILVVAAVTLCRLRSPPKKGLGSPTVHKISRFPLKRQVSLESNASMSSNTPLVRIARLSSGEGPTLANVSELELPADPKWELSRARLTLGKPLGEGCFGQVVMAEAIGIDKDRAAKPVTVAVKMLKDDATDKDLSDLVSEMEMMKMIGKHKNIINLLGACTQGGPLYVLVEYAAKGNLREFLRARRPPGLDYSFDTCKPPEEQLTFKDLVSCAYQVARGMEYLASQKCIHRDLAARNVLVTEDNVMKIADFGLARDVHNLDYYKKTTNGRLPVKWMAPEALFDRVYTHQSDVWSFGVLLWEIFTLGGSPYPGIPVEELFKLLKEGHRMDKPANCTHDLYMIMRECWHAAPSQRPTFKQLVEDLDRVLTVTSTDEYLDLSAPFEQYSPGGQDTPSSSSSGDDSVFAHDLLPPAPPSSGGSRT

First: EIIPFYGMSSY [FNDC3B_Y175_T179S]
Second: LLLLFYVVRYC [MPZ_Y177]
The phosphorylation enrichment of the first is higher: 0.672 for the first, 0.436 for the second.

Going from NGEDPYAGSTD [XRCC1_Y515] to VTSLKYSTPPY [BRIP1_Y916_S919P], the phosphorylation enrichment falls from 0.67 to 0.515.

First: CPFNLYAAQLS [HGD_Y40_E42A_YF]
Second: HEEDNYIEMIP [NWD2_Y566_L569M]
The phosphorylation enrichment of the first is lower: 0.816 for the first, 3.82 for the second.

Compared with MFQVQYNSSVD [LRFN1_Y458_YF], PEADKYRLTFA [FGG_Y300_YF] is higher in phosphorylation enrichment: 0.581 for the first, 0.78 for the second.

First: DEDEEYEYMNR [ERBB3_Y1197]
Second: YLEKYYKFGCR [NNMT_Y25_S29C]
The phosphorylation enrichment of the first is lower: 0.62 for the first, 0.928 for the second.

Compared with SPRDTYSDRSG [CTPS1_Y567], LSSEMCVKSFT [F5_Y2149_Y2149C_YF] is higher in phosphorylation enrichment: 0.438 for the first, 1.13 for the second.

First: LNPDGYEKAYE [CPXM2_Y427]
Second: AHLLQYNHRVK [LGALS3_Y221]
The phosphorylation enrichment of the first is higher: 0.789 for the first, 0.442 for the second.

First: QDEPTYARSSK [PEAK1_Y616_H611Q]
Second: LFMGDYVDRGF [PPP2CA_Y86_YF]
The phosphorylation enrichment of the first is lower: 0.508 for the first, 0.943 for the second.

The sequences below were run against Jak2 (UniProt O60674) in the same assay as above.
Sequence of Jak2 (O60674 whole entry, looked up): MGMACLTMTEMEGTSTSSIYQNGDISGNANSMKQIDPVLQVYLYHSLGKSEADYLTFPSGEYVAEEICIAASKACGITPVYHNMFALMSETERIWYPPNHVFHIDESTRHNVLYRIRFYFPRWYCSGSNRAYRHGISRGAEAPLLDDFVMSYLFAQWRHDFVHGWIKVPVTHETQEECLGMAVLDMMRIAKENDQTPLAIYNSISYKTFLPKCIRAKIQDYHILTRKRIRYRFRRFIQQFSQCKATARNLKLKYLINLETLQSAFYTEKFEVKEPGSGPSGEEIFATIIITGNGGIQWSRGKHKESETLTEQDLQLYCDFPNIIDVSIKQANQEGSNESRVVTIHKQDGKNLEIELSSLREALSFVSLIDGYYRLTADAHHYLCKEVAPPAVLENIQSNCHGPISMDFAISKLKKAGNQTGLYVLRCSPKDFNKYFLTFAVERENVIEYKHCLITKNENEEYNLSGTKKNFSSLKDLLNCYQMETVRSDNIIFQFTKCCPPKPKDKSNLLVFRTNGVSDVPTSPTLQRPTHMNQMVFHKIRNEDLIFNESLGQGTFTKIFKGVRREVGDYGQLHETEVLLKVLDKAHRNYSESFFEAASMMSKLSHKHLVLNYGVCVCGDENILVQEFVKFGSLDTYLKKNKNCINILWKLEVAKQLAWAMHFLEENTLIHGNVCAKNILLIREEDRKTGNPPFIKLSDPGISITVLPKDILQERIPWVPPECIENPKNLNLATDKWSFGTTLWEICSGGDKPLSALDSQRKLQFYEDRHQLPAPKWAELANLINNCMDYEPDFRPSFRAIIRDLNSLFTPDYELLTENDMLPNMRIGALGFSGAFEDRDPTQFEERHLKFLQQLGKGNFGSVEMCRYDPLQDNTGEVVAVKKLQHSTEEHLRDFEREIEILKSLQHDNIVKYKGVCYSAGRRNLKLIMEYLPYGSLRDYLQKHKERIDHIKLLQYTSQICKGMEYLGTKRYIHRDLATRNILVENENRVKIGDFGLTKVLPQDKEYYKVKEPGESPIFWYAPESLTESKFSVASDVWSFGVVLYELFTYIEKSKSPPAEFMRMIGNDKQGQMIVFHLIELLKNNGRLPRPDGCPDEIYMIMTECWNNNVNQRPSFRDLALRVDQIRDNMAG

First: EIIPFYGMSSY [FNDC3B_Y175_T179S]
Second: LLLLFYVVRYC [MPZ_Y177]
The phosphorylation enrichment of the first is higher: 0.748 for the first, 0.735 for the second.

Going from NGEDPYAGSTD [XRCC1_Y515] to VTSLKYSTPPY [BRIP1_Y916_S919P], the phosphorylation enrichment falls from 0.809 to 0.565.

Going from CPFNLYAAQLS [HGD_Y40_E42A_YF] to HEEDNYIEMIP [NWD2_Y566_L569M], the phosphorylation enrichment rises from 1.02 to 2.39.

First: MFQVQYNSSVD [LRFN1_Y458_YF]
Second: PEADKYRLTFA [FGG_Y300_YF]
The phosphorylation enrichment of the first is lower: 0.771 for the first, 1 for the second.

First: DEDEEYEYMNR [ERBB3_Y1197]
Second: YLEKYYKFGCR [NNMT_Y25_S29C]
The phosphorylation enrichment of the first is lower: 1.19 for the first, 1.34 for the second.

Going from SPRDTYSDRSG [CTPS1_Y567] to LSSEMCVKSFT [F5_Y2149_Y2149C_YF], the phosphorylation enrichment rises from 0.521 to 1.11.

First: LNPDGYEKAYE [CPXM2_Y427]
Second: AHLLQYNHRVK [LGALS3_Y221]
The phosphorylation enrichment of the first is higher: 2.41 for the first, 0.562 for the second.

First: QDEPTYARSSK [PEAK1_Y616_H611Q]
Second: LFMGDYVDRGF [PPP2CA_Y86_YF]
The phosphorylation enrichment of the first is lower: 0.685 for the first, 0.696 for the second.

These sequences were tested against Fes (UniProt P07332) in the same assay as above.
Sequence of Fes (P07332 whole entry, looked up): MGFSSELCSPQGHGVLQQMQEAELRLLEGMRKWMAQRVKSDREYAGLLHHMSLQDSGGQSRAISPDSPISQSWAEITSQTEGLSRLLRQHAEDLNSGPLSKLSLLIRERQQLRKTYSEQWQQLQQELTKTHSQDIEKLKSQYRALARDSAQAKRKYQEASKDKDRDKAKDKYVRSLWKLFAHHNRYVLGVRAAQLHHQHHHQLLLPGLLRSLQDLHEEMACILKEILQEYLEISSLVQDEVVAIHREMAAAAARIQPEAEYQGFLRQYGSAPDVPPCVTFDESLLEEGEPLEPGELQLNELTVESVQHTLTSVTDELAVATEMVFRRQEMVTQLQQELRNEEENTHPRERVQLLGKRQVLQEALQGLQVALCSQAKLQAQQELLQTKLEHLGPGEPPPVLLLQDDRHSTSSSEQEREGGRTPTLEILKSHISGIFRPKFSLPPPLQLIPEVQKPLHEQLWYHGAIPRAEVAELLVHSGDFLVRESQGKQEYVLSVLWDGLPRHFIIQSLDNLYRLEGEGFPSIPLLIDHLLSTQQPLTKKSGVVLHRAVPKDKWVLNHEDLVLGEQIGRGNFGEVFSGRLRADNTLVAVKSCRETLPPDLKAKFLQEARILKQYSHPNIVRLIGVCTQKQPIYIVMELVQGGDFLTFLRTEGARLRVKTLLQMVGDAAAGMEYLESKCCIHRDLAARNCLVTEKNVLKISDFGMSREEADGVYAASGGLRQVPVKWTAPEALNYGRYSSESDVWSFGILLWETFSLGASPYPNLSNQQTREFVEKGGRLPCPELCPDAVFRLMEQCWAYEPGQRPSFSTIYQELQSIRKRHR

First: EIIPFYGMSSY [FNDC3B_Y175_T179S]
Second: LLLLFYVVRYC [MPZ_Y177]
The phosphorylation enrichment of the first is higher: 0.914 for the first, 0.738 for the second.

Going from NGEDPYAGSTD [XRCC1_Y515] to VTSLKYSTPPY [BRIP1_Y916_S919P], the phosphorylation enrichment falls from 1.1 to 0.681.

Compared with CPFNLYAAQLS [HGD_Y40_E42A_YF], HEEDNYIEMIP [NWD2_Y566_L569M] is higher in phosphorylation enrichment: 1.29 for the first, 2.85 for the second.

Going from MFQVQYNSSVD [LRFN1_Y458_YF] to PEADKYRLTFA [FGG_Y300_YF], the phosphorylation enrichment rises from 0.86 to 1.18.

Compared with DEDEEYEYMNR [ERBB3_Y1197], YLEKYYKFGCR [NNMT_Y25_S29C] is higher in phosphorylation enrichment: 1.23 for the first, 1.55 for the second.

Compared with SPRDTYSDRSG [CTPS1_Y567], LSSEMCVKSFT [F5_Y2149_Y2149C_YF] is higher in phosphorylation enrichment: 0.572 for the first, 1.45 for the second.

First: LNPDGYEKAYE [CPXM2_Y427]
Second: AHLLQYNHRVK [LGALS3_Y221]
The phosphorylation enrichment of the first is higher: 1.53 for the first, 0.604 for the second.

First: QDEPTYARSSK [PEAK1_Y616_H611Q]
Second: LFMGDYVDRGF [PPP2CA_Y86_YF]
The phosphorylation enrichment of the first is lower: 0.869 for the first, 0.963 for the second.

These sequences were tested on c-Abl (mouse) in the same assay as above.

Compared with EIIPFYGMSSY [FNDC3B_Y175_T179S], LLLLFYVVRYC [MPZ_Y177] is lower in phosphorylation enrichment: 0.587 for the first, 0.574 for the second.

Going from NGEDPYAGSTD [XRCC1_Y515] to VTSLKYSTPPY [BRIP1_Y916_S919P], the phosphorylation enrichment falls from 0.779 to 0.483.

Going from CPFNLYAAQLS [HGD_Y40_E42A_YF] to HEEDNYIEMIP [NWD2_Y566_L569M], the phosphorylation enrichment rises from 0.874 to 1.86.

First: MFQVQYNSSVD [LRFN1_Y458_YF]
Second: PEADKYRLTFA [FGG_Y300_YF]
The phosphorylation enrichment of the first is lower: 0.566 for the first, 0.918 for the second.

Going from DEDEEYEYMNR [ERBB3_Y1197] to YLEKYYKFGCR [NNMT_Y25_S29C], the phosphorylation enrichment rises from 0.668 to 1.02.

Going from SPRDTYSDRSG [CTPS1_Y567] to LSSEMCVKSFT [F5_Y2149_Y2149C_YF], the phosphorylation enrichment rises from 0.608 to 0.932.

Going from LNPDGYEKAYE [CPXM2_Y427] to AHLLQYNHRVK [LGALS3_Y221], the phosphorylation enrichment falls from 0.773 to 0.668.

First: QDEPTYARSSK [PEAK1_Y616_H611Q]
Second: LFMGDYVDRGF [PPP2CA_Y86_YF]
The phosphorylation enrichment of the first is higher: 0.738 for the first, 0.616 for the second.
